Patent publication US20250361296A1

How the values were obtained:
Test in all cases: flow cytometry, CHO-S cells expressing the target
[1] = biological target: human SIGLEC15 on CHO-S-hSIGLEC15 cells (human) (UniProt Q6ZMC9)
[2] = biological target: Macaca fascicularis (crab-eating macaque) SIGLEC15 on CHO-S-fasSIGLEC15 cells (Macaca fascicularis (crab-eating macaque))
[3] = biological target: mouse SIGLEC15 on CHO-S-mSIGLEC15 cells (mouse)
[4] = biological target: dog SIGLEC15 on CHO-S-dSIGLEC15 cells (dog)
Sequence of dog SIGLEC15 on CHO-S-dSIGLEC15 cells (dog) (chain, as listed by the source limits assumed): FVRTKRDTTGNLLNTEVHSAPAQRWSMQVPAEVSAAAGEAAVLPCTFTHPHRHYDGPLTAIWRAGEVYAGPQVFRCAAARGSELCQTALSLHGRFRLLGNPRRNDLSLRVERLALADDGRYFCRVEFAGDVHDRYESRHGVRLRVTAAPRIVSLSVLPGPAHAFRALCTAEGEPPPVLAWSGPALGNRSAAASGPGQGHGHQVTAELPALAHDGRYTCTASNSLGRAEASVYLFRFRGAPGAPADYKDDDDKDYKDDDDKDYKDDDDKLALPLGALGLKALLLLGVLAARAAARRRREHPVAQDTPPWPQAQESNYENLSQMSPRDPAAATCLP

Sequence of human SIGLEC15 on CHO-S-hSIGLEC15 cells (human) (Q6ZMC9 20-328 limits assumed): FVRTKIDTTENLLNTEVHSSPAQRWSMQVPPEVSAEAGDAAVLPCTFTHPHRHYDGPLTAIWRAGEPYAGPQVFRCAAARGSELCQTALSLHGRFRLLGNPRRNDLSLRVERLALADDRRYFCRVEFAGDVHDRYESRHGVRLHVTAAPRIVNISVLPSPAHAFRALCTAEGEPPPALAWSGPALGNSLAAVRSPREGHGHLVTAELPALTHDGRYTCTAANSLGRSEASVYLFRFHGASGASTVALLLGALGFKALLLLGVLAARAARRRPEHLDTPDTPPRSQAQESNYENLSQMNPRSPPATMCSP
Sequence of mouse SIGLEC15 on CHO-S-mSIGLEC15 cells (mouse) (chain, as listed by the source limits assumed): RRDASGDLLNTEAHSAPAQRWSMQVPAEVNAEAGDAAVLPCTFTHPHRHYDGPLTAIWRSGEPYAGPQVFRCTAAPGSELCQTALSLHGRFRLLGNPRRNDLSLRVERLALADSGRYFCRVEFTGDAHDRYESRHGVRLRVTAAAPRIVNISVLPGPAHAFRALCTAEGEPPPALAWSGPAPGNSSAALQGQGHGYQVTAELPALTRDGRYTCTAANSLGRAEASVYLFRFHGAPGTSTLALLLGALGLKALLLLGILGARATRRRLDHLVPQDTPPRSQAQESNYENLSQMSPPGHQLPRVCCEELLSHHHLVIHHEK

| Substance | Percentage of Positive Cells [1] | Percentage of Positive Cells [2] | Percentage of Positive Cells [3] | Percentage of Positive Cells [4] |
| --- | --- | --- | --- | --- |
| NC | 0.1% | 0.2% | 0.1% | 0.6% |
| NC + secondary antibody | 0% | 0% | 0.3% | 0.7% |
